In the test the target is T1, PUB domain of peptide:N-glycanase (UniProt Q9JI78 1-119).
T1 construct: PUB domain of peptide:N-glycanase (PNGase); molecular weight 12.5 kDa as printed in the methods; PDB 2D5U is, as I recall, the mouse protein; The supplement's 1.34 mg/mL for 100 µM implies 13.4 kDa, not the 12.5 kDa of the methods; also called PNGase-PUB; component B; source: purified, dialyzed in 10 mM sodium phosphate buffer (pH 7.0) or PBS
T1 sequence: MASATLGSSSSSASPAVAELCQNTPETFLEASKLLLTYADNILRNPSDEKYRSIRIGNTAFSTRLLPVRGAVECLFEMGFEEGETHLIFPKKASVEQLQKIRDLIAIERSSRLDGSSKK
Put plainly: AUC; sedimentation equilibrium (SE-AUC) of the mixture in 10 mM sodium phosphate buffer (pH 7.0), 25 °C; [hHR23b-UBL] = [PNGase-PUB] = 100, 75 and 50 µM; 20000, 30000 and 35000 rpm; absorbance optics; global fit with the association-dissociation equilibrium model A + B = AB (eq. 7, SEDPHAT). The following applies: both partners purified.

B1: ubiquitin-like domain of the proteasome shuttle factor hHR23b (domain or fragment)
chain: not shown
notes: ubiquitin-like (UBL) domain of hHR23b; molecular weight 9.5 kDa as printed; also called hHR23b-UBL; component A; source: purified, dialyzed in 10 mM sodium phosphate buffer (pH 7.0) or PBS
B1: the Kd (usually the constant that tells how readily two partners part at equilibrium) is 227 ± 28 µM.

The record behind these values is paper PMC7280208, “Integral approach to biomacromolecular structure by analytical-ultracentrifugation and small-angle scattering” (Communications Biology, 2020).
